T1: recombinant Mtgr1 NHR1 domain (residues 98–206) (mouse, UniProt O70374 98-206, H200K, biotin (biotin-acceptor tag))
T1 sequence: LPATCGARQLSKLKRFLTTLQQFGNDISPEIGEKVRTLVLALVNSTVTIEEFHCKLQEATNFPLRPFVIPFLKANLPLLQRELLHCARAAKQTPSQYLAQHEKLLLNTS

B1: Mb(hPRDM14_S4), purified monobody (designed binder)
chain: GSVSSVPTKLEVVAATPTSLLISWDAPAVTVDLYFITYGETGGNSPVQKFTVPGSKSTATISGLKPGVDYTITVYAQYYYRGWYVGSPISINYRT
modifications: biotin
B2: human PRDM14 (residues 238–487) (domain or fragment)
chain: LPQTLDKDSLQLPEGLCLMQTVFGEVPHFGVFCSSFIAKGVRFGPFQGKVVNASEVKTYGDNSVMWEIFEDGHLSHFIDGKGGTGNWMSYVNCARFPKEQNLVAVQCQGHIFYESCKEIHQNQELLVWYGDCYEKFLDIPVSLQVTEPGKQPSGPSEESAEGYRCERCGKVFTYKYYRDKHLKYTPCVDKGDRKFPCSLCKRSFEKRDRLRIHILHVHEKHRPHKCSTCGKCFSQSSSLNKHMRVHSGDR
modifications: biotin (biotin-acceptor tag)
B3: recombinant Prdm14 pre-SET+SET domains (residues 184–373) (domain or fragment)
chain: GFNFTEEELSFVLYGAIASPEHPTDLQHAISGILVPTESSGSNHLHKTLDKDSLQLPEGLCLMQTSFGDVPHFGVFCSDFIAKGVRFGPFRGRVVNASEVKAHRDNSRMWEIFEDGHLSHFIDGKGSGNWMSYVNCARFPKEQNLLAVQHQGQIFYESCRDIQRNQELLVWYGNGYEKFLGVPMNLRVTE
modifications: biotin (biotin-acceptor tag)

Assay [1] addresses B2.
Assay [2] deals with Mb(hPRDM14_S14), purified monobody (biotin).
For assay [3], the target named is T1, recombinant Mtgr1 NHR1 domain (residues …). Kind of assay: Mtgr1 immobilized on beads.
Assay [4] has the same target. As to the kind of experiment: Prdm14 immobilized on beads.

By Kd is commonly meant the free concentration of one partner at which half of the binding sites on the other are occupied at equilibrium, for simple one-to-one binding.

Consider B1, for which the equilibrium dissociation constant (Kd) in assay [1] was 38 nM.
In assay [2], B2 showed a Kd of 2.8 nM.
Consider B3, for which the Kd in assay [2] was 1.7 nM; in assay [3] it was 11 nM; in assay [4] it was 7.1 nM.

The values are drawn from PMC4749557 (2015).
